Reference: PMC7652391

Target: Mature human mitochondrial heat shock protein family D member 1 (HSPD1) (human), P10809
Assay: cryo-EM structure; single-particle cryoEM of reconstituted oligomeric HSPD1; grids by TED (6 and 50 ms), chameleon (54 ms) and Vitrobot (6 s blot); 50 mM Tris, 300 mM NaCl, 10 mM MgCl2 pH 8; consensus reconstructions in C1 and C7 symmetry
Conditions: remark: other sources report otherwise

B1: Mature human mitochondrial heat shock protein family D member 1 (HSPD1), P10809 27-573 (natural protein)
chain: AKDVKFGADARALMLQGVDLLADAVAVTMGPKGRTVIIEQSWGSPKVTKDGVTVAKSIDLKDKYKNIGAKLVQDVANNTNEEAGDGTTTATVLARSIAKEGFEKISKGANPVEIRRGVMLAVDAVIAELKKQSKPVTTPEEIAQVATISANGDKEIGNIISDAMKKVGRKGVITVKDGKTLNDELEIIEGMKFDRGYISPYFINTSKGQKCEFQDAYVLLSEKKISSIQSIVPALEIANAHRKPLVIIAEDVDGEALSTLVLNRLKVGLQVVAVKAPGFGDNRKNQLKDMAIATGGAVFGEEGLTLNLEDVQPHDLGKVGEVIVTKDDAMLLKGKGDKAQIEKRIQEIIEQLDVTTSEYEKEKLNERLAKLSDGVAVLKVGGTSDVEVNEKKDRVTDALNATRAAVEEGIVLGGGCALLRCIPALDSLTPANEDQKIGIEIIKRTLKIPAMTIAKNAGVEGSLIVEKIMQSSSEVGYDAMAGDFVNMVEKGIIDPTKVVRTALLDAAGVASLLTTAEVVVTEIPKEEKDPGMGAMGGMGGGMGGGMF
- stoichiometry N: 7
